doi:10.1101/2021.03.19.436134
“And” between values parts separate entries of the source, which are not always exact repeats. Equal values may be shown once.

What was measured:
[1] = biological target: biotinylated PfArlI, ArlI motor ATPase of Pyrococcus furiosus with AviTag, unlabelled, immobilised (Pyrococcus furiosus); test: single-molecule TIRF photobleaching step counting
[2] = biological target: PfArlH^S109C, single cysteine mutant of Pyrococcus furiosus ArlH labelled with Atto550 and Atto647N, non-phosphorylated (Pyrococcus furiosus); test: single-molecule TIRF photobleaching step counting
[3] = biological target: SaArlH, ArlH of Sulfolobus acidocaldarius, His-tagged, non-phosphorylated (Sulfolobus acidocaldarius); test: BLI
[4] = biological target: labelled, biotinylated PfArlI^C290S/T411C (Pyrococcus furiosus); test: single-molecule TIRF photobleaching step counting

**Q.** Which stoichiometry N [1] does the source give for “PfArlH^S109C, single cysteine mutant of Pyrococcus furiosus ArlH labelled with Atto550 and Atto647N, non-phosphorylated (natural protein)” here?
**A.** Its stoichiometry N is 1.

**Q.** And the stoichiometry N [2]?
**A.** Its stoichiometry N is 6 and 3.

**Q.** Which Kd [3] does the source give for “SaArlI, ArlI motor ATPase of Sulfolobus acidocaldarius (Strep-SaArlI) (enzyme)” here?
**A.** Its Kd is 0.638 µM.

**Q.** How did the stoichiometry N [4] turn out when “labelled, biotinylated PfArlI^C290S/T411C (enzyme)” was run?
**A.** Its stoichiometry N is 3 and 2 and 6.
